Test results taken from US20240216271A1, “HYDROLYTICALLY DEGRADABLE HYDROGELS AND USES THEREOF” (GEORGIA TECH RESEARCH CORPORATION, priority 2021, published 2024).

Tested on: primary monocytes derived from the bone marrow of C57BL/6J mice
Experiment: Bone marrow derived macrophage co-culture with microgels (flow cytometry)
Format: cell-based
Settings: 48 hr of co-culture
Excerpt: To assess the effects of microgels on immune cell polarization in vitro, a co-culture system was setup involving primary monocytes derived from the bone marrow of C57BL/6J mice with different formulations of crosslinked microgels. […] In addition, the overall expression of these markers was equivalent after 4 days of co-culture (FIGS. 11A-D).
Bone Marrow Derived Macrophage Co-culture: Bone marrow was isolated from the femurs and tibias of 6-week-old male C57BL/6J mice. Bones were cleaned of soft tissue, one side was cut to expose the marrow, and they were inverted in a 200 μL pipet tip cut to fit in a 1.5 mL Eppendorf tube. The bones were then centrifuged at 10,000×g for 15 sec to pellet the marrow in the bottom of the Eppendorf tube. Bones were discarded and cells were then resuspended in RBC Lysis Buffer (Biolegend 420302) to remove red blood cells. Cells were then washed in MACS buffer (DPBS pH 7.2, 0.5% BSA, 2 mM EDTA) and monocytes were isolated using the Monocyte Isolation Kit (BM), mouse (Miltenyi Biotec 130-100-629) and LS columns (Miltenyi Biotec 130-042-401).
Monocytes were cultured in RPMI 1640 media (Gibco 11875-085) supplemented with 10% heat-inactivated fetal bovine serum, 1% pen/strep, and 20 ng/mL murine M-CSF (Biolegend 574804) for 6 days in low-adherent plates. […] Samples were analyzed on a FACS-AriaIIIu flow cytometer (BD Biosciences).

## IL-4: murine IL-4, 20 ng/ml; IL-4-polarized M2 positive control
  cell viability / cell survival: increase in cell numbers
